Measured values from patent publication US9382546.

Tested on: recombinant overlapping peptides (ROP) fusion protein composed of 20 overlapping peptides covering HIV Nef (Lai) interspersed with Factor Xa sites (IEGR)

Substance: protease Factor Xa (New England Biolabs)
- protease digestion, SDS page and mass spectrometry: the ROP protein was cut by Factor Xa into overlapping peptides (ROP peptides) as shown in the mass spectrometry
